According to publication PMC12411348 (2025):

Target: recombinant human pVHL (CUSABIO) (human, UniProt P40337-1 1-213)
Experiment: SPR

Chain of recombinant human pVHL (CUSABIO) (P40337 whole entry): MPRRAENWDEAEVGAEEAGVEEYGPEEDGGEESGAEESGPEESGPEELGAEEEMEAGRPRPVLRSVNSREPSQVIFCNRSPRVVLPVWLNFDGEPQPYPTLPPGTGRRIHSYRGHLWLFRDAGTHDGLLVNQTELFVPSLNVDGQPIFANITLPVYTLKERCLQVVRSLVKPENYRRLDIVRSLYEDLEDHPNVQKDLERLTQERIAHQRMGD

B1: recombinant TCF7L2(1–456) (domain or fragment)
chain: MPQLNGGGGDDLGANDELISFKDEGEQEEKSSENSSAERDLADVKSSLVNESETNQNSSSDSEAERRPPPRSESFRDKSRESLEEAAKRQDGGLFKGPPYPGYPFIMIPDLTSPYLPNGSLSPTARTLHFQSGSTHYSAYKTIEHQIAVQYLQMKWPLLDVQAGSLQSRQALKDARSPSPAHIVSNKVPVVQHPHHVHPLTPLITYSNEHFTPGNPPPHLPADVDPKTGIPRPPHPPDISPYYPLSPGTVGQIPHPLGWLVPQQGQPVYPITTGGFRHPYPTALTVNASMSRFPPHMVPPHHTLHTTGIPHPAIVTPTVKQESSQSDVGSLHSSKHQDSKKEEEKKKPHIKKPLNAFMLYMKEMRAKVVAECTLKESAAINQILGRRWHALSREEQAKYYELARKERQLHMQLYPGWSARDNYGKKKKRKRDKQPGETNEHSECFLNPCLSLPPIT
Question: B1 was tested. Which Kd did it give?
Answer: 806 nM
